We go through four sequences from the Immune Epitope Database (IEDB).

A word on the Kd: it is the equilibrium constant for the complex coming apart.

One test deals with HLA-A*02:03. Briefly: IEDB peptide-MHC binding, purified MHC/direct/fluorescence; filed as Kd, often an IC50 or EC50 that approximates it; ≥ and ≤ were set here for values at or beyond the usual limits of such assays. To be noted: source organism: Influenza A virus (A/ruddy turnstone/Delaware/67/1998(H12N4)).
The target in the next test is HLA-A*02:12. The test is described as above. To be noted: source organism: Influenza A virus (A/ruddy turnstone/Delaware/67/1998(H12N4)).
In test [1] the target is HLA-A*02:19. The test is described as above. To be noted: source organism: Influenza A virus (A/ruddy turnstone/Delaware/67/1998(H12N4)).
A further test addresses HLA-A*11:01. Described as above.
In the next test the target is HLA-A*68:02. The description is as above. To be noted: source organism: Influenza A virus (A/ruddy turnstone/Delaware/67/1998(H12N4)).
In a further test the target is HLA-A*26:01. Briefly: IEDB peptide-MHC binding, purified MHC/competitive/fluorescence; filed as Kd, often an IC50 or EC50 that approximates it; ≥ and ≤ were set here for values at or beyond the usual limits of such assays. To be noted: source organism: Influenza A virus (A/ruddy turnstone/Delaware/67/1998(H12N4)).
Test [2] addresses HLA-A*69:01. The test is described as above. To be noted: source organism: Influenza A virus (A/ruddy turnstone/Delaware/67/1998(H12N4)).
Test [3] has as its target HLA-B*18:01. The test is described as above. To be noted: source organism: Influenza A virus (A/ruddy turnstone/Delaware/67/1998(H12N4)).
The target of a further test is HLA-B*27:03. The description is as above. To be noted: source organism: Influenza A virus (A/ruddy turnstone/Delaware/67/1998(H12N4)).
Another test concerns the target HLA-B*39:01. The description is as above. To be noted: source organism: Influenza A virus (A/ruddy turnstone/Delaware/67/1998(H12N4)).
Test [4] has as its target HLA-B*46:01. The test is described as above. To be noted: source organism: Influenza A virus (A/ruddy turnstone/Delaware/67/1998(H12N4)).
The target of the next test is HLA-B*51:01. Described as above. To be noted: source organism: Influenza A virus (A/ruddy turnstone/Delaware/67/1998(H12N4)).
Test [5] addresses HLA-B*57:01. The description is as above. To be noted: source organism: Influenza A virus (A/ruddy turnstone/Delaware/67/1998(H12N4)).
For the next test, the target named is HLA-A*01:01. Briefly: IEDB peptide-MHC binding, purified MHC/direct/fluorescence; filed as Kd, often an IC50 or EC50 that approximates it; ≥ and ≤ were set here for values at or beyond the usual limits of such assays.
The target in test [6] is HLA-A*02:01. The test is described as above.
The target in a further test is HLA-A*03:01. The description is as above.
A further test has as its target HLA-A*31:01. The test is described as above. To be noted: source organism: Bacillus anthracis.
Test [7] has as its target HLA-A*69:01. The description is as above. To be noted: source organism: Bacillus anthracis.
For a further test, the target named is HLA-B*07:02. The test is described as above.
The target in the next test is HLA-B*08:01. The description is as above. To be noted: source organism: Bacillus anthracis str. A2012.
The target in a further test is HLA-B*15:01. The description is as above.
The target in another test is HLA-B*15:17. The description is as above.
The target of test [8] is HLA-B*18:01. Described as above. To be noted: source organism: Bacillus anthracis.
Another test deals with HLA-B*27:05. Described as above.
For a further test, the target named is HLA-B*40:01. The description is as above. To be noted: source organism: Bacillus anthracis.
The target of test [9] is HLA-B*46:01. Described as above. To be noted: source organism: Bacillus anthracis.
The target in a further test is HLA-B*48:01. The description is as above. To be noted: source organism: Bacillus anthracis.
The target of test [10] is HLA-B*57:01. The description is as above.
A further test has as its target HLA-B*58:01. Described as above.
Test [11] concerns the target HLA-A*02:01. Briefly: IEDB peptide-MHC binding, purified MHC/competitive/fluorescence; filed as Kd, often an IC50 or EC50 that approximates it; ≥ and ≤ were set here for values at or beyond the usual limits of such assays. To be noted: source organism: Burkholderia mallei SAVP1.
The target of test [12] is HLA-A*02:19. The description is as above. To be noted: source organism: Burkholderia mallei SAVP1.
Where [13] appears, read: source organism: Bacillus anthracis.
Setting [14] is: source organism: Coxiella burnetii.

As to IVFMWAIHH, the equilibrium dissociation constant (Kd) with HLA-A*02:03 was at least 20 µM; with HLA-A*02:12, at least 20 µM; with HLA-A*02:19 [1], at least 20 µM; in the test with HLA-A*11:01 (source organism: Influenza A virus (A/ruddy turnstone/Delaware/67/1998(H12N4))) it was 0.187 µM; with HLA-A*68:02, at least 20 µM; with HLA-A*26:01 it was at least 20 µM. In addition, the equilibrium dissociation constant (Kd) with HLA-A*69:01 [2], with HLA-B*18:01 [3], in the test with HLA-B*27:03, with HLA-B*39:01, with HLA-B*46:01 [4] and with HLA-B*51:01 was at least 20 µM throughout. For the same sequence, the equilibrium dissociation constant (Kd) in the test with HLA-B*57:01 [5] is at least 20 µM.
As to PTDYAKPQY, the Kd with HLA-A*01:01 (setting [13]) was 0.0525 µM; with HLA-A*02:01 [6] (setting [13]) it was at least 20 µM; in the test with HLA-A*03:01 (setting [13]), at least 20 µM; with HLA-A*11:01 (setting [13]), at least 20 µM; with HLA-A*31:01, at least 20 µM; in the test with HLA-A*69:01 [7], at least 20 µM. Moreover, the dissociation constant Kd with HLA-B*07:02 (setting [13]), in the test with HLA-B*08:01, with HLA-B*15:01 (setting [13]), in the test with HLA-B*15:17 (setting [13]), with HLA-B*18:01 [8] and with HLA-B*27:05 (setting [13]) was at least 20 µM throughout. Also, the Kd with HLA-B*40:01, in the test with HLA-B*46:01 [9], with HLA-B*48:01, in the test with HLA-B*57:01 [10] (setting [13]) and with HLA-B*58:01 (setting [13]) was at least 20 µM each time.
Take ITLYEYDHF: the Kd in the test with HLA-A*01:01 (setting [14]) is at least 20 µM; with HLA-A*02:01 [6] (setting [14]), at least 20 µM; in the test with HLA-A*03:01 (setting [14]) it was at least 20 µM; in the test with HLA-B*07:02 (setting [14]), at least 20 µM; with HLA-B*15:01 (setting [14]), at least 20 µM; with HLA-B*15:17 (setting [14]), 0.0126 µM. In addition, the Kd was at least 20 µM in the test with HLA-B*27:05 (setting [14]), 0.13 µM with HLA-B*57:01 [10] (setting [14]) and 0.885 µM with HLA-B*58:01 (setting [14]).
For IMALKQAGL, the Kd with HLA-A*02:01 [11] was 0.0445 µM; with HLA-A*02:19 [12] it was 0.0045 µM.
